Source: paper PMC12628175

Molecular target: Recombinant human G-CSFR (granulocyte-colony-stimulating factor receptor) (human) (UniProt Q99062)
UniProt Q99062, sequence (Q99062 25-333): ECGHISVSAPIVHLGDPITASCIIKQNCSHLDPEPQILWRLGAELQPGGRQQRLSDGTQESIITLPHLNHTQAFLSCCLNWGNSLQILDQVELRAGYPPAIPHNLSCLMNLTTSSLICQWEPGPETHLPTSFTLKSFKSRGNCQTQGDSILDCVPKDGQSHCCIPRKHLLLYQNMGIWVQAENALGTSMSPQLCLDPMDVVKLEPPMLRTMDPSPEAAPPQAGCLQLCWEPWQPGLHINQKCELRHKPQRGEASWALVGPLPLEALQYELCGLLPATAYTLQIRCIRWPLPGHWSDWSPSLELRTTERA

EC50 (pM) of proliferation of murine NFS-60 cells (48 h, CellTiter-Blue; receptor of the cells); rhG-CSF self-made from E. coli: 2.6 pM
Substance: Recombinant human granulocyte colony-stimulating factor (rhG-CSF) (from UniProt P09919 31-207) (ligand)
